Measured values from article PMC7174510.
One block for each binder: values may come before it.

Biological target: Rac1 (African green monkey (endogenous in COS-1))

percent inhibition by 1A-116 (50 uM, 24 h) of the SRE-luciferase activity elicited by the activated GEF in COS-1 cells: 60%
B1: oncogenic Dbl (domain or fragment)
chain: HVLNELIQTERVYVRELYTVLLGYRAEMDNPEMFDLMPPLLRNKKDILFGNMAEIYEFHNDIFLSSLENCAHAPERVGPCFLERKDDFQMYAKYCQNKPRSETIWRKYSECAFFQECQRKLKHRLRLDSYLLKPVQRITKYQLLLKELLKYSKDCEGSALLKKALDAMLDLLKSVNDSMHQIAINGYIGNLNELGKMIMQGGFSVWIGHKKGATKMKDLARFKPMQRHLFLYEKAIVFCKRRVESGEGSDRYPSYSFKHCWKMDEVGITEYVKGDNRKFEIWYGEKEEVYIVQASNVDVKMTWLKEIRNILLKQQELLTVKKRKQQDQLTERDKFQISLQQNDEKQQGAFISTEETELEHTSTVVEVCEAIASVQAEANTVWTEASQSAEISEEPAEWSSNYFYPTYDENEEENRPLMRPVSEMALLY

percent inhibition by 1A-116 (50 uM, 24 h) of the SRE-luciferase activity elicited by the activated GEF in COS-1 cells: 75%
B2: Tiam1 C1199 (aa 391-1590) (domain or fragment)
chain: LEMSTTNSESLEEAGSAHSDEQSSGTLSSPGQSDILLTAAQGTVRKAGALAVKNFLVHKKNKKVESATRRKWKHYWVSLKGCTLFFYETDGRSGIDHNSVPKHAVWVENSIVQAVPEHPKKDFVFCLSNSLGDAFLFQTTSQTELENWITAIHSACAAAVARHHHKEDTLRLLKSEIKKLEQKIDMDEKMKKMGEMQLSSVTDSKKKKTILDQIFVWEQNLEQFQMDLFRFRCYLASLQGGELPNPKRLLAFASRPTKVAMGRLGIFSVSSFHALVAARTGEIGVRRRTQAMSRSASKRRSRFSSLWGLDTTSKKKQGRPTINQVFGEGTDAVKRSLEGIFDDTVPDGKREKEVVLPSVHQHNPDCDIWVHEYFTPSWFCLPNNQPALTVVRPGDTARDTLELICKTHQLDHSAHYLRLKFLMENRVQFYIPQPEEDIYELLYKEIEICPKVTQNIHIEKSDAAADNYGFLLSSVDEDGIRRLYVNSVKETGLASKKGLKAGDEILEINNRAAGTLNSSMLKDFLSQPSLGLLVRTYPEPEGGVELLENPPHRVDGPVDLGESPLAFLTSNPGHSLSSEQGSSAETAPEEGEGPDLESSDETDHSSKSTEQVAAFCRSLHEMSPSDSSPSPQDATSPQLATTRQLSDADKLRKVICELLETERTYVKDLNCLMERYLKPLQKETFLTQDELDVLFGNLTEMVEFQVEFLKTLEDGVRLVPDLEKLEKVDQFKKVLFSLGGSFLYYADRFKLYSAFCASHTKVPKVLVKAKTDTAFKAFLDAQNPRQQHSSTLESYLIKPIQRVLKYPLLLRELFALTDAESEEHYHLDVAIKTMNKVASHINEMQKIHEEFGAVFDQLIAEQTGEKKEVADLSMGDLLLHTSVIWLNPPASLGKWKKEPELAAFVFKTAVVLVYKDGSKQKKKLVGSHRLSIYEEWDPFRFRHMIPTEALQVRALPSADAEANAVCEIVHVKSESEGRPERVFHLCCSSPESRKDFLKSVHSILRDKHRRQLLKTESLPSAQQYVPFGGKRLCALKGARPAMSRAVSAPSKSLGRRRRRLARNRFTIDSDAISASSPEKEPQQPAGGGDTDRWVEEQFDLAQYEEQDDIKETDILSDDDEFCESLKGASVDRDLQEQLQAASISQRARGRRTLDSHASRMTQLKKQAALSGINGGLESASEEVIWVRREDFAPSRKLNTE
